Experimental data reported in patent publication US20130090286A1 (published 2013).
Several values for one entry are separate records, joined by “and”; a condition that tells them apart may be missing. Equal values may be shown once. Numbered stars: 1 amine (or outer) side, 2 acyl side, 3 side chain; on linkers, the order of the positions; unused ones are H or OH. Bridge positions count the residues as written; N and C are the ends. Square brackets hold non-standard residues; d marks the D form. Side chains are listed from the residue outwards. Ends that are not written are not given here. * marks the point of attachment. γGlu = O=C(O)[C@H](CCC(=O)[*:2])N[*:1]; Palmitoyl = CCCCCCCCCCCCCCCC(=O)*; DMIA = not defined here; Aib = CC(C)(N)C(=O)O; βAla = NCCC(=O)O

B1: Peptide 84 (Table 22, SEQ ID NO: 566) (peptide)
peptide: H[Aib]QGTFTSDK([βAla-βAla-Palmitoyl])SKYLD[Aib]RRAQDFVQWLMNT-NH2
B2: Peptide 82 (Table 22, SEQ ID NO: 564) (peptide)
peptide: H[Aib]QGTFTSDK([Ala-Ala-Palmitoyl])SKYLD[Aib]RRAQDFVQWLMNT-NH2
B3: Peptide 86 (Table 22, SEQ ID NO: 568) (peptide)
peptide: H[Aib]QGTFTSDK([Leu-Leu-Palmitoyl])SKYLD[Aib]RRAQDFVQWLMNT-NH2
B4: Peptide 83 (Table 22, SEQ ID NO: 565) (peptide)
peptide: H[Aib]QGTFTSDK([γGlu-γGlu-Palmitoyl])SKYLD[Aib]RRAQDFVQWLMNT-NH2
B5: Chi-2, d-Ser2, Lys10 γE-γE-C16 (SEQ ID NO: 644) (peptide)
peptide: H[dS]QGTFTSDK([γGlu-γGlu-Palmitoyl])SKYLDEQAAKEFIAWLMNT
B6: Chi-2, AIB2, Lys10 γE-C16 (SEQ ID NO: 645) (peptide)
peptide: H[Aib]QGTFTSDK([γGlu-Palmitoyl])SKYLDEQAAKEFIAWLMNT-NH2
modifications: N-terminus assumed
SMILES: CCCCCCCCCCCCCCCC(=O)N[C@@H](CCC(=O)NCCCC[C@H](NC(=O)[C@H](CC(=O)O)NC(=O)[C@H](CO)NC(=O)[C@@H](NC(=O)[C@H](Cc1ccccc1)NC(=O)[C@@H](NC(=O)CNC(=O)[C@H](CCC(N)=O)NC(=O)C(C)(C)NC(=O)[C@@H](N)Cc1c[nH]cn1)[C@@H](C)O)[C@@H](C)O)C(=O)N[C@@H](CO)C(=O)N[C@@H](CCCCN)C(=O)N[C@@H](Cc1ccc(O)cc1)C(=O)N[C@@H](CC(C)C)C(=O)N[C@@H](CC(=O)O)C(=O)N[C@@H](CCC(=O)O)C(=O)N[C@@H](CCC(N)=O)C(=O)N[C@@H](C)C(=O)N[C@@H](C)C(=O)N[C@@H](CCCCN)C(=O)N[C@@H](CCC(=O)O)C(=O)N[C@@H](Cc1ccccc1)C(=O)N[C@H](C(=O)N[C@@H](C)C(=O)N[C@@H](Cc1c[nH]c2ccccc12)C(=O)N[C@@H](CC(C)C)C(=O)N[C@@H](CCSC)C(=O)N[C@@H](CC(N)=O)C(=O)N[C@H](C(N)=O)[C@@H](C)O)[C@@H](C)CC)C(=O)O
B7: Chi-2, AIB2, I7, Lys10 γE-C16 (SEQ ID NO: 649) (peptide)
peptide: H[Aib]QGTFISDK([γGlu-Palmitoyl])SKYLDEQAAKEFIAWLMNT-NH2
modifications: N-terminus assumed
SMILES: CCCCCCCCCCCCCCCC(=O)N[C@@H](CCC(=O)NCCCC[C@H](NC(=O)[C@H](CC(=O)O)NC(=O)[C@H](CO)NC(=O)[C@@H](NC(=O)[C@H](Cc1ccccc1)NC(=O)[C@@H](NC(=O)CNC(=O)[C@H](CCC(N)=O)NC(=O)C(C)(C)NC(=O)[C@@H](N)Cc1c[nH]cn1)[C@@H](C)O)[C@@H](C)CC)C(=O)N[C@@H](CO)C(=O)N[C@@H](CCCCN)C(=O)N[C@@H](Cc1ccc(O)cc1)C(=O)N[C@@H](CC(C)C)C(=O)N[C@@H](CC(=O)O)C(=O)N[C@@H](CCC(=O)O)C(=O)N[C@@H](CCC(N)=O)C(=O)N[C@@H](C)C(=O)N[C@@H](C)C(=O)N[C@@H](CCCCN)C(=O)N[C@@H](CCC(=O)O)C(=O)N[C@@H](Cc1ccccc1)C(=O)N[C@H](C(=O)N[C@@H](C)C(=O)N[C@@H](Cc1c[nH]c2ccccc12)C(=O)N[C@@H](CC(C)C)C(=O)N[C@@H](CCSC)C(=O)N[C@@H](CC(N)=O)C(=O)N[C@H](C(N)=O)[C@@H](C)O)[C@@H](C)CC)C(=O)O
B8: Chi-2, d-Ser2, Lys10 γE-C16 (SEQ ID NO: 643) (peptide)
peptide: H[dS]QGTFTSDK([γGlu-Palmitoyl])SKYLDEQAAKEFIAWLMNT
B9: Chi-2, AIB2, E3, Lys10 γE-γE-C16 (SEQ ID NO: 648) (peptide)
peptide: H[Aib]EGTFTSDK([γGlu-γGlu-Palmitoyl])SKYLDEQAAKEFIAWLMNT
B10: Chi-2, AIB2, E3, Lys10-C16, no spacer (SEQ ID NO: 647) (peptide)
peptide: H[Aib]EGTFTSDK(Palmitoyl)SKYLDEQAAKEFIAWLMNT-NH2
modifications: N-terminus assumed
SMILES: CCCCCCCCCCCCCCCC(=O)NCCCC[C@H](NC(=O)[C@H](CC(=O)O)NC(=O)[C@H](CO)NC(=O)[C@@H](NC(=O)[C@H](Cc1ccccc1)NC(=O)[C@@H](NC(=O)CNC(=O)[C@H](CCC(=O)O)NC(=O)C(C)(C)NC(=O)[C@@H](N)Cc1c[nH]cn1)[C@@H](C)O)[C@@H](C)O)C(=O)N[C@@H](CO)C(=O)N[C@@H](CCCCN)C(=O)N[C@@H](Cc1ccc(O)cc1)C(=O)N[C@@H](CC(C)C)C(=O)N[C@@H](CC(=O)O)C(=O)N[C@@H](CCC(=O)O)C(=O)N[C@@H](CCC(N)=O)C(=O)N[C@@H](C)C(=O)N[C@@H](C)C(=O)N[C@@H](CCCCN)C(=O)N[C@@H](CCC(=O)O)C(=O)N[C@@H](Cc1ccccc1)C(=O)N[C@H](C(=O)N[C@@H](C)C(=O)N[C@@H](Cc1c[nH]c2ccccc12)C(=O)N[C@@H](CC(C)C)C(=O)N[C@@H](CCSC)C(=O)N[C@@H](CC(N)=O)C(=O)N[C@H](C(N)=O)[C@@H](C)O)[C@@H](C)CC
B11: AIB2, AIB16, A18, D28, Lys10 γE-C16 (SEQ ID NO: 656) (peptide)
peptide: H[Aib]QGTFTSDK([γGlu-Palmitoyl])SKYLD[Aib]RAAQDFVQWLMDT-NH2
B12: DMIA1, E16/K20 lactam, Lys29 γE-C16 (SEQ ID NO: 653) (peptide)
peptide: XSQGTFTSDYSKYLDERRAKDFVQWLMNK
modifications: DMIA at position 1; E16/K20 lactam; C16 fatty acyl on Lys29 via γ-Glu spacer
B13: Chi-2, AIB2, I7, Lys10 γE-γE-C16 (SEQ ID NO: 650) (peptide)
peptide: H[Aib]QGTFISDK([γGlu-γGlu-Palmitoyl])SKYLDEQAAKEFIAWLMNT-NH2
modifications: N-terminus assumed
SMILES: CCCCCCCCCCCCCCCC(=O)N[C@@H](CCC(=O)N[C@@H](CCC(=O)NCCCC[C@H](NC(=O)[C@H](CC(=O)O)NC(=O)[C@H](CO)NC(=O)[C@@H](NC(=O)[C@H](Cc1ccccc1)NC(=O)[C@@H](NC(=O)CNC(=O)[C@H](CCC(N)=O)NC(=O)C(C)(C)NC(=O)[C@@H](N)Cc1c[nH]cn1)[C@@H](C)O)[C@@H](C)CC)C(=O)N[C@@H](CO)C(=O)N[C@@H](CCCCN)C(=O)N[C@@H](Cc1ccc(O)cc1)C(=O)N[C@@H](CC(C)C)C(=O)N[C@@H](CC(=O)O)C(=O)N[C@@H](CCC(=O)O)C(=O)N[C@@H](CCC(N)=O)C(=O)N[C@@H](C)C(=O)N[C@@H](C)C(=O)N[C@@H](CCCCN)C(=O)N[C@@H](CCC(=O)O)C(=O)N[C@@H](Cc1ccccc1)C(=O)N[C@H](C(=O)N[C@@H](C)C(=O)N[C@@H](Cc1c[nH]c2ccccc12)C(=O)N[C@@H](CC(C)C)C(=O)N[C@@H](CCSC)C(=O)N[C@@H](CC(N)=O)C(=O)N[C@H](C(N)=O)[C@@H](C)O)[C@@H](C)CC)C(=O)O)C(=O)O
B14: AIB2, AIB16, A18, D28, Lys10 γE-γE-C16 (SEQ ID NO: 655) (peptide)
peptide: H[Aib]QGTFTSDK([γGlu-γGlu-Palmitoyl])SKYLD[Aib]RAAQDFVQWLMDT-NH2
modifications: N-terminus assumed
SMILES: CCCCCCCCCCCCCCCC(=O)N[C@@H](CCC(=O)N[C@@H](CCC(=O)NCCCC[C@H](NC(=O)[C@H](CC(=O)O)NC(=O)[C@H](CO)NC(=O)[C@@H](NC(=O)[C@H](Cc1ccccc1)NC(=O)[C@@H](NC(=O)CNC(=O)[C@H](CCC(N)=O)NC(=O)C(C)(C)NC(=O)[C@@H](N)Cc1c[nH]cn1)[C@@H](C)O)[C@@H](C)O)C(=O)N[C@@H](CO)C(=O)N[C@@H](CCCCN)C(=O)N[C@@H](Cc1ccc(O)cc1)C(=O)N[C@@H](CC(C)C)C(=O)N[C@@H](CC(=O)O)C(=O)NC(C)(C)C(=O)N[C@@H](CCCNC(=N)N)C(=O)N[C@@H](C)C(=O)N[C@@H](C)C(=O)N[C@@H](CCC(N)=O)C(=O)N[C@@H](CC(=O)O)C(=O)N[C@@H](Cc1ccccc1)C(=O)N[C@H](C(=O)N[C@@H](CCC(N)=O)C(=O)N[C@@H](Cc1c[nH]c2ccccc12)C(=O)N[C@@H](CC(C)C)C(=O)N[C@@H](CCSC)C(=O)N[C@@H](CC(=O)O)C(=O)N[C@H](C(N)=O)[C@@H](C)O)C(C)C)C(=O)O)C(=O)O
B15: DMIA1, E16/K20 lactam, Lys10 γE-C16 (SEQ ID NO: 651) (peptide)
peptide: [DMIA]SQGTFTSDK([γGlu-Palmitoyl])SKYLDERRAKDFVQWLMNT
modifications: lactam 16-20; reading uncertain
B16: Chi-2, AIB2, Lys10 γE-γE-C16 (SEQ ID NO: 646) (peptide)
peptide: H[Aib]QGTFTSDK([γGlu-γGlu-Palmitoyl])SKYLDEQAAKEFIAWLMNT-NH2
modifications: N-terminus assumed
SMILES: CCCCCCCCCCCCCCCC(=O)N[C@@H](CCC(=O)N[C@@H](CCC(=O)NCCCC[C@H](NC(=O)[C@H](CC(=O)O)NC(=O)[C@H](CO)NC(=O)[C@@H](NC(=O)[C@H](Cc1ccccc1)NC(=O)[C@@H](NC(=O)CNC(=O)[C@H](CCC(N)=O)NC(=O)C(C)(C)NC(=O)[C@@H](N)Cc1c[nH]cn1)[C@@H](C)O)[C@@H](C)O)C(=O)N[C@@H](CO)C(=O)N[C@@H](CCCCN)C(=O)N[C@@H](Cc1ccc(O)cc1)C(=O)N[C@@H](CC(C)C)C(=O)N[C@@H](CC(=O)O)C(=O)N[C@@H](CCC(=O)O)C(=O)N[C@@H](CCC(N)=O)C(=O)N[C@@H](C)C(=O)N[C@@H](C)C(=O)N[C@@H](CCCCN)C(=O)N[C@@H](CCC(=O)O)C(=O)N[C@@H](Cc1ccccc1)C(=O)N[C@H](C(=O)N[C@@H](C)C(=O)N[C@@H](Cc1c[nH]c2ccccc12)C(=O)N[C@@H](CC(C)C)C(=O)N[C@@H](CCSC)C(=O)N[C@@H](CC(N)=O)C(=O)N[C@H](C(N)=O)[C@@H](C)O)[C@@H](C)CC)C(=O)O)C(=O)O
B17: DMIA1, E16/K20 lactam, Lys29 γE-γE-C16 (SEQ ID NO: 654) (peptide)
peptide: XSQGTFTSDYSKYLDERRAKDFVQWLMNK
modifications: DMIA at position 1; E16/K20 lactam; C16 fatty acyl on Lys29 via γ-Glu-γ-Glu spacer
B18: DMIA1, E16/K20 lactam, Lys10 γE-γE-C16 (SEQ ID NO: 652) (peptide)
peptide: [DMIA]SQGTFTSDK([γGlu-γGlu-Palmitoyl])SKYLDERRAKDFVQWLMNT
modifications: lactam 16-20; reading uncertain

Target: T1, GLP-1 receptor (UniProt P43220 24-463, limits assumed)
Test: cell-based or functional assay

| Binder | cAMP EC50 |
| --- | --- |
| B1 | 4 pM |
| B2 | 108 pM |
| B3 | 6 pM |
| B4 | 43 pM |

Target: glucagon receptor (UniProt P47871 26-477, limits assumed)
Sequence (P47871 26-477 limits assumed): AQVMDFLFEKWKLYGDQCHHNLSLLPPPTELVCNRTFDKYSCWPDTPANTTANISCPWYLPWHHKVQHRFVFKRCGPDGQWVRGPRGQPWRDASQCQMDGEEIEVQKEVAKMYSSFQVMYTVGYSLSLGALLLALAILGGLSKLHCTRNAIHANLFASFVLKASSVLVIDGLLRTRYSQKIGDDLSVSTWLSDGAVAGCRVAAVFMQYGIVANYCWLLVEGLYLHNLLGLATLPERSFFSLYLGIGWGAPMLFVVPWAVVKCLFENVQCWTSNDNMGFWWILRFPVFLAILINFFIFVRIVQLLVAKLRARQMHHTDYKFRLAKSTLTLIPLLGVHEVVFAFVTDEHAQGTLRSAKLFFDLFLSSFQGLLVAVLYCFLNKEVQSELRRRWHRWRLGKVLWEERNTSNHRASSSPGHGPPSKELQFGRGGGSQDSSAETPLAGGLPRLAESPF
Test: cell-based or functional assay

| Binder | in vitro activity EC50 |
| --- | --- |
| B5 | 8 pM |
| B6 | 25 pM |
| B7 | 14 pM |
| B8 | 11 pM |
| B9 | 2920 pM |
| B10 | 46100 pM |
| B11 | 6 pM |
| B12 | 107 pM |
| B13 | 7 pM |
| B14 | 3 pM |
| B15 | 19 pM |
| B16 | 14 pM |
| B17 | 25 pM |

Target: T1, GLP-1 receptor
Test: cell-based or functional assay
Remark: another data set of the same source

| Binder | in vitro activity EC50 |
| --- | --- |
| B5 | 3 pM |
| B6 | 1.4 pM |
| B7 | 24 pM and 44 pM |
| B18 | 4 pM |
| B8 | 1.4 pM |
| B9 | 4 pM |
| B10 | 5 pM |
| B11 | 4 pM |
| B12 | 75 pM |
| B13 | 10 pM |
| B14 | 4 pM |
| B15 | 6 pM |
| B16 | 1.8 pM |
| B17 | 70 pM |
